EC50, Kd and koff data for two molecules are collected here from patent US20020102658A1.

In one test the target is T1, mouse AILIM (mouse) (UniProt Q9WVS0).
T1 sequence (looked up): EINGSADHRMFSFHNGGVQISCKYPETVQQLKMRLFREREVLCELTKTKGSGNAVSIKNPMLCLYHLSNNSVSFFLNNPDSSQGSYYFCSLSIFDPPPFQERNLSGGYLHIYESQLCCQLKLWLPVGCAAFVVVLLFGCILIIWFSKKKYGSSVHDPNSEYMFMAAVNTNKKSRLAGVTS
Nature of the test: cell ELISA on recombinant CHO cells overexpressing mouse AILIM; given as ED50.

The next test addresses T2, rat AILIM (rat) (UniProt Q9R1T7).
T2 sequence (looked up): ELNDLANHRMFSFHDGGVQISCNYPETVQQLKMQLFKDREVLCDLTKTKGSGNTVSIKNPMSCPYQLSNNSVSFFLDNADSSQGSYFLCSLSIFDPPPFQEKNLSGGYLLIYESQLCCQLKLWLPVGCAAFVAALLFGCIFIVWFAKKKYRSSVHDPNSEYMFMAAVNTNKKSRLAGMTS
Nature of the test: cell ELISA on recombinant CHO cells overexpressing rat AILIM; given as ED50.

For test [1], the target named is T3, human AILIM-IgFc (recombinant chimeric antigen of the extracellular region of human AILIM and the constant region (Fc) of human IgG1) (human) (UniProt Q9Y6W8).
T3 sequence (biotin-labeled in the inhibition ELISA of Example 14, looked up): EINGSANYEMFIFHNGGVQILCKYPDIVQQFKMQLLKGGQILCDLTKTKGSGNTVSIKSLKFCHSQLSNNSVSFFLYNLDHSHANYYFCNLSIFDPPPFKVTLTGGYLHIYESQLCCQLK
Nature of the test: SPR, Biacore X; human AILIM-IgFc immobilised on sensor chip, antibody in flow.

Test [2] concerns the target human AILIM (activation inducible lymphocyte immunomodulatory molecule) (human) (UniProt Q9Y6W8). Nature of the test: cell ELISA on recombinant CHO cells overexpressing human AILIM; given as ED50.

B1: human anti-human AILIM monoclonal antibody JMab-138 (clone AII289) (antibody, from another filing, human IgG2, V domains shown)
VH: EVQLVESGGGLVQPGGSLRLSCAASGFTFSSYDMHWVRQATGKGLEWVSAIGTAGDTYYPGSVKGRFTISRENAKNSLYLQMNSLRAGDTAVYYCVRDNRKVTHEHYYYYGMDVWGQGTTVTVSS
VL: EIVLTQSPGTLSLSPGERATLSCRASQNIRSSYLAWYQQKPGQAPGLLIYGASSRATGIPDRFSGSGSGTDFTLTISRLEPEDFAVYYCQQFGSSPMCSFGQGTKLEIKR
As for B1, the EC50 with mouse AILIM (mouse) amounted to 0.053 µg/mL; with rat AILIM (rat), 0.057 µg/mL; in test [2] it was 0.0105 µg/mL. The dissociation constant Kd in test [1] worked out at 1100 pM. Also, the koff in test [1] amounted to 4.2e-05 s⁻¹.

B2: human anti-human AILIM monoclonal antibody JMab-139 (clone AII394) (antibody, from another filing, human IgG2, V domains shown)
VH: EVQLVESGGGLVQPGGSLRLSCAASGFTFSSYDMHWVRQATGKGLEWVSAIGTAGDTYYPGSVKGRFTISRENAKNSLYLQMNSLRAGDTAVYYCVRDKRTVTHEHYYYYGMDVWGQGTTVTVSS
VL: EIVLTQSPGTLSLSPGERATLSCRASQSISSSSLAWYQQKPGQAPGLLIFGASSRATGIPDRFSGSGSGTDFTLTISRLEPEDFAVYYCQQFGSSPMCSFGQGTKLEIKR
As to B2, the 50% effective concentration (EC50) is 0.06 µg/mL with mouse AILIM (mouse), 0.09 µg/mL with rat AILIM (rat) and 0.0106 µg/mL in test [2]. Besides, the Kd in test [1] was 770 pM. Moreover, the koff in test [1] was determined as 2.4e-05 s⁻¹.
